# Laboratory results from PMC9280364, “MdNAC4 Interacts With MdAPRR2 to Regulate Nitrogen Deficiency-Induced Leaf Senescence in Apple (Malus domestica)”.
# T1: MdNAC4-GST (Malus domestica, UniProt B6DXL4 1-350)
# T1 sequence: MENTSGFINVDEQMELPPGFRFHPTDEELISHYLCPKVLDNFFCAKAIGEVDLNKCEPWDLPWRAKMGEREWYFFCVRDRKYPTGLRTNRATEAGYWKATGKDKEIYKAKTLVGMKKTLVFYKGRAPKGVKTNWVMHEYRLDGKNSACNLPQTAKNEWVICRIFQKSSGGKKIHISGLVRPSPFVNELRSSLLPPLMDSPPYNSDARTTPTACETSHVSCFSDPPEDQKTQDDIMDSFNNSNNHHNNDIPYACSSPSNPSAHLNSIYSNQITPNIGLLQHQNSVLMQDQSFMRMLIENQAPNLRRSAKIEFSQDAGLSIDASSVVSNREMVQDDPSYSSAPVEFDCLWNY
# B1: MdPAO Mut probe (dsDNA)
# DNA 1: AGTTATCCATCCGTCTAAAACCAAT
# DNA 2: ATTGGTTTTAGACGGATGGATAACT
# B2: MdPAO promoter probe (ABRE) (dsDNA)
# DNA 1: AGTTATCCATACGTGTAAAACCAAT
# DNA 2: ATTGGTTTTACACGTATGGATAACT
# B3: MdNYC1 promoter probe (ABRE) (dsDNA)
# DNA 1: ATATAGGCACGTGAAGGGAGGACAGAGATG
# DNA 2: CATCTCTGTCCTCCCTTCACGTGCCTATAT
# Key:
# MdNAC4-GST [1] = target: T1, MdNAC4-GST; assay: EMSA; EMSA binding buffer (composition not given), 24 °C, 30 min in the dark; settings: protein: recombinant; tags: GST (pGEX-4T-1 type primers GST-MdNAC4-F/R); chain copies: 2; blunt
# MdNAC4-GST [2] = target: T1, MdNAC4-GST; assay: EMSA; unlabeled probe competes; EMSA binding buffer (composition not given), 24 °C, 30 min in the dark; settings: protein: recombinant; tags: GST (pGEX-4T-1 type primers GST-MdNAC4-F/R); chain copies: 2; label: biotin; blunt
Binder,binding result (MdNAC4-GST [1]),binding result (MdNAC4-GST [2])
B1,no binding,
B2,,binds
B3,,binds
